According to the DeepSol protein solubility set:

experiment: soluble on expression in E. coli; label from the status in PepcDB or PDB records

| Sequence | soluble on expression in E. coli |
| --- | --- |
| AHHHHHHGSKWEEWKPFYERIVKEMGYSIEEDRRAAELLRDILMENDNYIIKEELNSIIMQKVYVFGAGPNLEEALKKGDFKDGTKIAADGATSALLEYGITPDVVVTDLDGRIRDLLEASRKAVMVVHAHGDNMDKLPLVVEFPLVLGTCQTEPLDIVYNFGGFTDGDRAAFLAEEMGAKEIVLVGFDFSGIVGKWSKPWLRDHTPAWESKMKKLKFARELLEWLKNNGRAKIIEFSI | not soluble |
| FQIGDMVARKSYQMDVLFRIIGIEQTSKGNSIAILHGDEVRLIADSDFSDLVAVKKDEQMMRKKKDESRMNESLELLRQDYKLLREKQEYYATSQYQHQEHYFHMPGKVLHLDGDEAYLKKCLNVYKKIGVPVYGIHCHEKKMSASIEVLLDKYRPDILVITGHDAYSKQKGGIDDLNAYRHSKHFVETVQTARKKIPHLDQLVIFAGACQSHFESLIRAGANFASSPSRVNIHALDPVYIVAKISFTPFMERINVWEVLRNTLTREKGLGGIETRGVLRIGMPYKSN | not soluble |
| MNRQIPKVPDAIELEYDLDEPPQKVWRAISIPAFREHWLPKEALAQPEAIKVSPGREVCYRLREDTPPFLESTVTFQIASNDRGGTSLRIIHDLPAIKSGRMTKAAANHNGSPIKLAALEHHHHHH | not soluble |
| MAHHHHHHSLKKPTHSGSGQIRIIGGQWRGRKLPVPDSPGLRPTTDRVRETLFNWLAPVMVDAHCLDCFAGSGALGLEALSRYAAQATLLEMDRAVSQQLQKNLATLKANNARVVNTNTLTFLSQPGTPHHVVFVDPPFRKGLLEETLQLLETQGWLADDALIYVESEVENGLPPVPANWALYREKVAGQVAYRLYQRDAQGENDVD | soluble |
| MKFDPTSPSLNIMLANPRGFCAGVDRAISIVERALELFSPPIYVRHEVVHNRYVVQNLKDRGAVFVEELDQVPDNNIVIFSAHGVSQAVRAEAKARGLRVFDATCPLVTKVHLQVTRASRKGIECILIGHAGHPEVEGTMGQYDNPNGGVYLIESPADVETLEVRDPNNLCFVTQTTLSVDDTLDIISALLKRFPSIEGPRKDDICYATQNRQDAVRNLSADVDLLIVVGSKNSSNSNRLRELALKTGTQSYLVDTADDIDSSWFENITKVAVTAGASAPEVLVQQVVQAIAKLAPSVVTEVEGRKEDTVFAVPAELR | soluble |
| MNEMTLLYSPSCWVPGKNRDEVMNDFFAGIKNAFEALKNDEKIPRKENVAYGMEENQKVDIWGDASDKLLIFIHGGYWAAGTRKDCLTPARCALNNEYAFASVGYGLSTEGRTLTETVEDVVNGVDFILKLYPNVSNVLVGGHSAGAHLAMNAVARLRNPRIRGLLLFSGCYFLEELIGTEIGTDINLTTDQAKLNSCDLSKLDGLKLDSLVILGLQEAPKLIEQNRDFVAQQGQSRIEEFPNSGHYTIMTNLLNHTSGEYLAMEKFLKNF | not soluble |
| MYNGYADVDDLHVYVYCGNTPELRLQELVADVKITIQPENEKSCCIKKFLSLKDNKFESIAMSADFGDFDEMVYNYAIDGKCTIEADITIIKEVGDARAKLRDFGEETRDVSDVVINVQNEKFHVSKMFLAAQSSHFKLLFKNSNDSEIALDGIIPEDFQNFLELLYGEPALTEDSVEGILQIAARFDVSTVIRKGEDFLLQKSEFSPEKKLQMSLKYNLENLKSKCLSEVKSVADIRSVLPKDIKEMDHSVMAELLEKSLGLQKT | not soluble |
| MPHWLVIDLEATTAEGGWPLEEMEIIEIGATLVAAADARELDHFQRFVRPVRRPLLTHFCRDLTHISQANVDGAAHLNTVWEAFERWLAQHRPRLAGWASWGDYDRRQLEQEWRQHGLTSQLSEVPHVNLKQRFGEVRQLPRPVGLNAALQLAGMSFQGQQHRALEDARNTARLLPLVLPVEHLEHHHHHH | soluble |
| MGSDKIHHHHHHMKLRELLSIGDLKKGKILTKEIGLDNEVDSAMVLEAIDIENWSRKNQLILTSFYALHDLPEKELENFFVKMRRIGISGLILKTDRFIKMIPEWFIELCFNYEIPLIKITQDISYEKILFTIYEPLLNYQSHVLRTYYDVRQRFTKLERHYPTVETIMQEFYDIIKLPFALKMLDKHLEISDGDLPHDAIVLSREKLKNSEFTKNDYSLLTLYSHANPKKQLALEVSIFNSYSTNCLLLVYLQDEKVKETDLVIIENAIDVLQEKFNTENLLKKERYTRLNNLADAILQNTPQNPDELNSLLREVQMQELDSYQAIAFSTKDTNTQLMKERIIALLRTLRVKSIFFDQLNYSAVLFNFNESDGKITKLQLSRLLAELLEENDTLTVAVSSLKSREGIKELLIECLDILRFNETFYNGPIVTLADIGVFKNFIREDQLENLDELIPRALYQLAENNYDLFETLYSFFQNNRNYKQTSEAMFLHSKTIRYRLNKVEQLLDIDLANPLQLLNYEIATYIIKMRRRALEKQSNTR | not soluble |
| MGGRQSSVTEERPRSNSVDTAQVRVSSQHSSSQRANVMTAAEFMQTMRNARFLSSSSDSNASEDDAGPSHSTTHGNRSRGLHATPGRLHGHHSRRSVPVFMMDMKCPVCHKVVPSDDADIHLVMCLTRPKITYNDDVLKDDKGECSICLEDLEAGHKIARLPCLCIYHKQCIDDWFKRKNCCPEHPGDD | not soluble |
| MEIEDGFYLIDDSNHDEDLDFSDFPWLDPDHPLFFPATQANNSKGSTRWDAVNKFSVENWYPHLRKHTFKSHFITLNYNDIHYLMGNIPPDYDSSKLESIFNKILSEFNNKEVFMRLSTRSPKDSKFLFEEASTIMSKDFVYWNENDNKHQQLVSFVASMLKAMKIKSGRKIIETIAQSPRVYNDLLALVSSSNQSDCTTNVILREWHDIRPDHEFRVFVSRRHRKESIVTAISQYFHFLYFDKSPADCFNFLDEEDKKAVIKKFENYVLKSVDPDVAKFLNFSSEQDDDESSDCIREYIVDLALIPVSQYHGEITDENIIEIGANTYVMVVIELNPFAPAATGSGLEHHHHHH | not soluble |
| MRHDGRQHDELRPITFDLDFISHPEGSVLITAGNTKVICNASVEDRVPPFLRGGGKGWITAEYSMLPQATNQQTIQESSKGKISGRTMEIQRLIGRALRAVVDLEKLGERTIWIDCDVIQADGGTRTASITGAFLAMAIAIGKLIKAGTIKTNPITDFLAAISVGIDKEQGILLDLNYEEDSSAEVDMNVIMTGSGRFVELQGTGEEATFSREDLNGLLGLAEKGIQELIDKQKEVLGDSLPELK | soluble |
| MSLTLPSEKPATDVAAQCFLNALIRETTDWKLTEYPPDELIIPLDEQKSLHFRVAYFSPTQHHRFAFPARLVTASGSYPVDFTTLSRLIIDKLRHQLFLPVPLCETFHQRVLESHAHTQQAIDARHDWTALREKALNFGEAEQALLTGHAFHPAPKSHEPFNRREAERYLPDMAPHFPLRWFSVDKTQIAGESLHLNLQQRLTRFAAENAPQLLNELSDNQWLFPLHPWQGEYLLQQGWCQALVAKGLIKDLGEAGTSWLPTTSSRSLYCATSRDMIKFSLSVRLTNSIRTLSVKEVKRGMRLARLAQTDGWQMLQVRFPTFRVMQEDGWAGLLDLNGNIMQESLFALRENLLVDQPKSQTNVLVSLTQAAPDGGDSLLVSAVKRLSDRLGITVQQAAHAWVDAYCQQVLKPLFTAEADYGLVLLAHQQNILVQMLGDLPVGFIYRDCQGSAFMPHATDWLDSIGEAQAENEGHHHHHH | not soluble |
| GPGSMPAPSLATRHFTFTHEVPADDVFELEENAPRRVPIACVTLQMVSFNRRCFWFHIAMTREGFSAPPPPFGACAVSFSGVSGDSAATTLVDDTALPQLGFKEAQHEVGVGAPNPQAVFADSLARRLSRRLEREFTSGVAVYVACGIIGENQSDLLGTPAGYGSEVTRRFGAEVFKHAMDLICEEGLGKATAA | not soluble |
| MFRAGEASKRPLPGPSPPRVRSVEVARGRAGYGFTLSGQAPCVLSCVMRGSPADFVGLRAGDQILAVNEINVKKASHEDVVKLIGKCSGVLHMVIAEGVGRFESCSSDEEGGLYEGKGWLKPKLDSKALGINRAERVVEEMQSGGIFNMIFENPSLCASNSEPLKLKQRSLSESAATRFDVGHESINNPNPNMLSKEEISKVIHDDSVFSIGLESHDDFALDASILNVAMIVGYLGSIELPSTSSNLESDSLQAIRGCMRRLRAEQKIHSLVTMKIMHDCVQLSTDKAGVVAEYPAEKLAFSAVCPDDRRFFGLVTMQTNDDGSLAQEEEGALRTSCHVFMVDPDLFNHKIHQGIARRFGFECTADPDTNGCLEFPASSLPVLQFISVLYRDMGELIEGMRARAFLDGDADAHQNNSTSSNSDSGIGNFHQEEKSNRVLVVDLGGSSSRHGPGGSAWDGVGGRGAQPWGAPWTGPFCPDPEGSPPFEAAHQTDRFWDLNKHLGPASPVEVPPASLRSSVPPSKRGTVGAGCGFNQRWLPVHVLREWQCGHTSDQDSYTDSTDGWSSINCGTLPPPMSKIPADRYRVEGSFAQPPLNAPKREWSRKAFGMQSIFGPHRNVRKTKEDKKGSKFGRGTGLTQPSQRTSARRSFGRSKRFSITRSLDDLESATVSDGELTGADLKDCVSNNSLSSNASLPSVQSCRRLRERRVASWAVSFERLLQDPVGVRYFSDFLRKEFSEENILFWQACEYFNHVPAHDKKELSYRAREIFSKFLCSKATTPVNIDSQAQLADDVLRAPHPDMFKEQQLQIFNLMKFDSYTRFLKSPLYQECILAEVEGRALPDSQQVPSSPASKHSLGSDHSSVSTPKKLSGKSKSGRSLNEELGDEDSEKKRKGAFFSWSRTRSTGRSQKKREHGDHADDALHANGGLCRRESQGSVSSAGSLDLSEACRTLAPEKDKATKHCCIHLPDGTSCVVAVKAGFSIKDILSGLCERHGINGAAADLFLVGGDKPLVLHQDSSILESRDLRLEKRTLFRLDLVPINRSVGLKAKPTKPVTEVLRPVVARYGLDLSGLLVRLSGEKEPLDLGAPISSLDGQRVVLEEKDPSRGKASADKQKGVPVKQNTAVNSSSRNHSATGEERTLGKSNSIKIKGENGKNARDPRLSKREESIAKIGKKKYQKINLDEAEEFFELISKAQSNRADDQRGLLRKEDLVLPEFLRLPPGSTELTLPTPAAVAKGFSKRSATGNGRESASQPGEQWEPVQESSDSPSTSPGSASSPPGPPGTTPPGQKSPSGPFCTPQSPVSLAQEGTAQIWKRQSQEVEAGGIQTVEDEHVAELTLMGEGDISSPNSTLLPPPSTPQEVPGPSRPGTSRF | soluble |
| MNNFLKHNDWARDPAFNHFWRHYDFSNQWIKQHTDASRQVQMQMVQRDNLSTEQCFSDSEEPEVIERLSRCEIYSEIENEESDIEEMSEEMKAFFAKTQEHRQKFSIRGRIEQSTDHRNASAEFIAKREKAKKDYGESATKILAMESTLAMKFESEYSQNPQLWPNIPFRF | not soluble |
| MSLRVMIVDDHGTNRELCRFILAHIASHIDTFEDGQQAIDAMREMEILPDVILLDVMMPIKDGFVTAKEIRQAFVKHHIPIIFLTVLDDRDSFEKCLALGDDFILKPVERSVLIAKVQAHYRIVKMHNEVMEQRDELRHFREQVQYDYAISESIFTNLMEEMCHQVEHIFGIHYISTPSTIFNGDLIVVANRPHGGVYVMIADATGHGLPAAISTIPATRTFFSTAQKGLSLGEMVIELNHSLERFLPVGMMLAASVFEVRANGFEISWWGGGLPEAYLLDHHGNIVSRLISNHMPLGVLPSNEFEADVQHFKLEPNQKLVCYTDGIIEAMNEQGEYFGQERLEHVLTKAYSEALIPTLYDAVKKFSNRGKGDDLSILTMTFPITNSNSSDKALPKVVLSCIPLQTELHFPADVLRKISLMNEVRRFLTGIVSGGEDLDLLCSVLSELFANAIEHGLLELDSSLKETPDGFFEFYQLRDKRLKTLPEYHWLILKVNYQPDKQRIEIDLEHSGKGFDCQALKDASNQKSYGRGILLATQLCESLEYSNQGRRVTAVYSFARKDTLHYSLPSEGHHHHHH | soluble |
